Reference: patent US7115556B2, “Use of anti-prolactin agents to treat proliferative conditions” (Greenville Hospital System, priority 1998, dated 2006)

How the values were obtained:
[1] = system: MCF-7 human breast cancer cells; assay: Mixed cell culture assay with transfected L cells, MCF-7; assay type: cell-based; settings: MCF-7, three days
[2] = system: T47D human breast cancer cells; assay: Mixed cell culture assay with transfected L cells, T47D; assay type: cell-based
Description: For certain experiments, a mixed cell culture assay was used, diagramatically represented in FIG. 6. In this assay, breast cancer cells were co-cultured with expressor cells which had been transfected with nucleic acid encoding PRL or a PRL variant and expressing those recombinant proteins. By varying the number of expressor cells, the amount of PRL or PRL variant present in the mixed cell culture was increased or decreased. […] In certain wells, which served as a control, no expresser cells were added. Then, increasing numbers of expresser cells (transfected L cells expressing either HPRL (L-PRL) or hPRLA (L-PRLA)) were added to breast cancer cell-containing wells to create mixed cultures. The same numbers of expressor cells were cultured in parallel (without T47D cells) to serve as controls. After culturing under standard conditions for a period of time, the number of cells present in the wells was counted, and the number of L cells in the corresponding control culture was subtracted. The resulting number could then be compared to the number of T47D cells in the T47D control culture to evaluate the effects of the recombinant product on breast cancer cell proliferation.

Caspase-3 = molecular target: T1, Caspase-3 (Homo sapiens, UniProt P42574); assay: ApopAlert CPP32/Caspase-3 assay in T-47D cells; assay type: cell-based; settings: 250 ng/ml, 2 h, with DEVD-CHO control
T1 construct: endogenous in cells; host or cells: T-47D
T1 sequence (P42574 29-277): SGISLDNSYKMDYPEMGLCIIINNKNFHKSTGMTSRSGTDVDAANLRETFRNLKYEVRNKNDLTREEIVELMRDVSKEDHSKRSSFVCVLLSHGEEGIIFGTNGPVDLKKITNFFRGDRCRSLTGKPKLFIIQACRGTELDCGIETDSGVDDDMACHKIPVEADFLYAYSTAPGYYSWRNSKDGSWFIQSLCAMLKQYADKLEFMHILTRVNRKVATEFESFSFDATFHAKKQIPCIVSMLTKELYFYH
Protocol: FIG. 24. Induction of Caspase-3 by bPRL-G129R. The effect of hPRL-G129R on Caspase-3 activation in T-47D cells using an ApopAlert CPP32/Caspase-3 assay kit (Clontech, Palo Alto, Calif.) is shown. T-47D cells were treated with 250 ng/ml of hPRL-G129R for 2 h. […] The samples were in duplicate and each sample constituted about 2 million cells.
In addition, the effect of hPRL-G129R on Caspase-3 activation was assayed in T-47D cells using an ApopAlert CPP32/Caspase-3 assay kit (Clontech, Palo Alto, Calif.) as presented in FIG. 24. T-47D cells were treated with 250 ng/ml of hPRL-G129R for 2 h.

prostate cancer cells = assay: TUNEL assay, prostate cancer cells; assay type: cell-based, human; settings: 250 ng hPRL-G129R, 24 hours
Protocol: Terminal deoxynucleotidly transferase mediated dUTP nick end labeling (TUNEL) assay. Nicks of the fragmented DNA are labeled at their 3-OH ends. The fluorescein-labeled dUTP is incorporated at the 3-OH ends by using the enzyme terminal deoxynucleotidyl transferase. After the assigned period of treatment the chambers were dismantled as per the manufacturer's instructions and the TUNEL assay (Apoptosis detection system, Fluorescein- Promega) was performed as per the manufacturer's instructions. The slide was examined under a FITC filter using an Olympus IX 70 microscope system.
The samples were in duplicate and each sample constituted about 2 million cells

[3] = system: T47-D human breast cancer cells; assay: 96 well cell proliferation assay with conditioned media (MTS-PMS); assay type: cell-based
Protocol: HPRLG129R Conditioned Media. The assay conditions were modified from that described by Ginsburg and Vonderharr (1995, Cancer Res. 55:2591–2595). T47-D cells were trypsinized and passed into 96 well plates in RPMI-1640 media containing 1% DCC-FCS in a volume of 100 μl/well. The optimal cell number/well for each cell line was pre-determined after titration assay. For T47-D cells, 15,000 cells/well were plated. The cells were allowed to settle and adhere overnight (12–18 hours) and subsequently various concentrations of either hPRL, hRPL-G129R, E2 or 4-OH-Tamoxifen in a total volume of 100 μl of culture media were added. Purified hPRL (kindly provided by Dr. Parlow, National Hormone & Pituitary Program, NIH) was used as a positive control for hPRL produced from stable L cells. Cells were incubated for an additional 96 hours at 37° C. in a humidified 5% CO2 incubator. After incubation, MTS-PMS solution (Cell Titer 96 Aqueous kit, Promega Corp.) was added to each well, following the manufacturer's instructions. Plates were read at 490 nm using a BIO-RAD benchmark microplate reader. The experiments were carried out in triplicates and repeated three to six times for each cell line.

rat Nb2 T lymphoma cells = settings: Goffin et al., 1994; cited from earlier work

Caspase-3 activation (Caspase-3): Caspase-3 induction
B1: hPRL-G129R: variant of human prolactin having a substitution of the glycine at position 129 with an arginine residue; prolactin receptor antagonist (protein)
chain: LPICPGGAARCQVTLRDLFDRAVVLSHYIHNLSSEMFSEFDKRYTHGRGFITKAINSCHTSSLATPEDKEQAQQMNQKDFLSLIVSILRSWNEPLYHLVTEVRGMQEAPEAILSKAVEIEEQTKRLLERMELIVSQVHPETKENEIYPVWSGLPSLQMADEESRLSAYYNLLHCLRRDSHKIDNYLKLLKCRIIHNNNC
effect on proliferation in mixed cell culture [1]: inhibitory effect
effect on proliferation in mixed cell culture ([2]; T47D, three days, effect greater than on MCF-7): inhibitory effect
inhibition of T47D proliferation ([2]; co-culture with L cells expressing hPRLA, 24 h to five days): up to 100%
apoptosis of two prostate cancer cells (prostate cancer cells): underwent apoptosis
inhibitory effect of combination ([3]; 100 nM 4-OH-Tamoxifen in the presence of 100 ng/ml hPRL-G129R): approximately 32 % of control
effect on hPRL induced cell proliferation ([3]; 1:1 molar ratio hPRL-G129R:hPRL): stop the stimulatory effect of hPRL
effect on hPRL induced cell proliferation ([3]; 2:1 molar ratio hPRL-G129R:hPRL): inhibited cell proliferation
maximum inhibition by a single dose ([3]; 4-OH-Tamoxifen at 500 nM, T47-D): 25 % of control
inhibitory potency compared with maximal 500 nM dose of 4-OH-Tamoxifen ([3]; hPRL-G129R 150 ng/ml): more potent
inhibitory effects of combination compared to maximum dose of either agent ([3]; hPRL-G129R applied together with 4-OH-Tamoxifen): doubled
effect on T47-D proliferation, dose response ([3]; single dose, four-day incubation): dose dependent inhibitory effects
activity in Nb2 proliferation assay (rat Nb2 T lymphoma cells): weak agonist
